Laboratory results published in paper PMC5532264.

Key:
[1] = AFM, tether rupture events per retraction; settings: glycan lost; control: DC-SIGN-WT
[2] = cell surface expression by flow cytometry, CHO; settings: glycan lost; control: DC-SIGN-WT
[3] = linear fit to averaged AFM retraction FD-curves; settings: glycan lost; control: untreated CHO-DC-SIGN-WT

B1: DC-SIGN (CD209): N80A (protein)
parent chain: MSDSKEPRLQQLGLLEEEQLRGLGFRQTRGYKSLAGCLGHGPLVLQLLSFTLLAGLLVQVSKVPSSISQEQSRQDAIYQNLTQLKAAVGELSEKSKLQEIYQELTQLKAAVGELPEKSKLQEIYQELTRLKAAVGELPEKSKLQEIYQELTWLKAAVGELPEKSKMQEIYQELTRLKAAVGELPEKSKQQEIYQELTRLKAAVGELPEKSKQQEIYQELTRLKAAVGELPEKSKQQEIYQELTQLKAAVERLCHPCPWEWTFFQGNCYFMSNSQRNWHDSITACKEVGAQLVVIKSAEEQNFLQLQSSRSNRFTWMGLSDLNQEGTWQWVDGSPLLPSFKQYWNRGEPNNVGEEDCAEFSGNGWNDDKCNLAKFWICKKSAASCSRDEEQFLSPAPATPNPPPA
other: membrane tether formation [1]: no change | expression_or_secretion [2]: no change | other: adhesion-site elasticity (cell stiffening), fold_change [3]: decreases
